Reference: the supplement of paper PMC10567573
± gives the standard deviation.

Test: protein stability index of a GFP-peptide fusion (GPS, HEK-293T) (PSI 1-6); higher = more stable
Settings: c terminus: a fixed tail appended
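Further: 24-mer peptide tiles fused after GFP, lentivirally expressed, FACS-sorted into six equal bins by GFP/DsRed ratio, decoded by Illumina sequencing, PSI is the read-weighted mean bin number.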

Sequence | protein stability index (treatment: DMSO) | protein stability index (treatment: MLN4924 1 uM, 8 h)
QYEGHVNEYAYLPLHVHEEEGILV [DCAF4] | 3.19 ± 0.13 | 3.17 ± 0.27
GVVMKVRIPTCHDKPGTTQIVQLT [DENND6A] | 2.02 ± 0.19 | 2.15 ± 0.4
HGQEGSILVTKVEEPSKYGVVVCE [GMPPB] | 3.9 ± 0.13 | 3.94 ± 0.25
LTHIEAQNKIRACGERLSLGLSRA [PDLIM7] | 2.83 ± 0.27 | 2.85 ± 0.12
FNDPFFIVETVCIVWFSFEFVVRC [KCNA4] | 3.38 ± 0.68 | 3.45 ± 0.98
LRVLPNLPCVVQEGAIVMARGRHV [PYCR3] | 2.63 ± 0.37 | 2.73 ± 0.22
VENPSTASHSLSPSEHVQGKSPVN [ZNF649] | 5.26 ± 0.17 | 5.21 ± 0.29
RSRKVSCPLTRSNGDLSRSLSPSP [FCHO1] | 4.04 ± 0.45 | 4.08 ± 0.15
KSTSKYIYQTLFLNGENSDIKICA [GMCL1] | 2.06 ± 0.65 | 3.41 ± 1.3
GSSGSYFVKDPQGRIIAVFKPKNE [PI4K2A] | 3.34 ± 0.16 | 3.66 ± 0.12
IERQWGNLLGEGQHKCDECGKSFT [ZSCAN9] | 3.79 ± 0.34 | 3.55 ± 0.22
NSIKNEKLEWAIDEDELRKSLSEL [PSD2] | 4.81 ± 0.15 | 4.72 ± 0.079
IVIFCLETLPELKDDKDFTGTVHR [KCNA1] | 2.42 ± 0.46 | 2.16 ± 0.27
NHEQEVNTLRCQLGDRLNVEVDAA [KRT33B] | 4.94 ± 0.11 | 5.16 ± 0.22
GAQMEKEWARALETRDWGGAQFEG [ZSWIM9] | 4.11 ± 0.26 | 4.22 ± 0.1
MNRSIPVEVDESEPYPSQLLKPIP [TRAF3IP2] | 4.44 ± 0.19 | 4.45 ± 0.34
GSKEGNHHSTQPKRNKRNPIFQDS [FAM104B] | 4.57 ± 0.21 | 4.55 ± 0.3
DLVRLLQNVARIPEFELLWKDIIH [INTS3] | 2.61 ± 0.65 | 2.15 ± 0.19
LGNEYPKLHYPELYVLKGGYKEFF [CDC25A] | 2.02 ± 0.23 | 2.01 ± 0.39
EVVPALEPTETLLSEKEINAREES [BCL2L13] | 5.6 ± 0.13 | 5.58 ± 0.22
ENHQPVSLSDLEIQASAGVISKKA [ZNF75A] | 4.94 ± 0.19 | 4.98 ± 0.39
YFSLYCLHQETQLIHVYLPLTSHI [SNX8] | 2.95 ± 0.35 | 2.78 ± 0.32

Sequence | protein stability index (treatment: DMSO) | protein stability index (treatment: MLN4924 1 uM, 8 h)
AGLAELGHRLAQKLQGLENWGQDP [PBXIP1] | 2.79 ± 0.17 | 2.85 ± 0.33
TGGQTVVNPWIIIGGVATVVCQPN [SEPHS2] | 2.84 ± 0.76 | 2.62 ± 0.7
DKLEYLDEKQRDPRIEASKVLLCH [NET1] | 4.09 ± 0.22 | 4.08 ± 0.19
FRKEIKSKSADNQEYFERHRWPPV [RHOBTB1] | 3.45 ± 0.44 | 3.26 ± 0.16
VVPARLKRASAPTFDNDYSLSELL [RIPK4] | 2.69 ± 0.17 | 2.8 ± 0.42
LDVDTAAGGFQQRQGLKYCLPLTF [FBXO3] | 2.42 ± 0.19 | 2.22 ± 0.45
VRSIQPEEKERIGQFVFARDAKAA [AASDHPPT] | 4.13 ± 0.31 | 4.39 ± 0.27
LRGGRGGSGGTRGPPSRGGHMDDG [RBMX] | 5.26 ± 0.19 | 5.3 ± 0.34
SDQDPRVRTAAIKAMLQLHERGLK [INTS4] | 3.67 ± 0.31 | 3.79 ± 0.39
VGDILWEHLEILQKEDVKPYQVNG [ETS1] | 3.1 ± 0.27 | 3.05 ± 0.33
HFPYDLHLRSQSLTMQDELNAVFH [NEUROD6] | 2.81 ± 0.19 | 2.92 ± 0.27
ELRDSSAYHVPNRTLASGRLLSYR [DNAAF3] | 3.04 ± 0.11 | 3.25 ± 0.096
KSSAQGPIPWFLPESRSLPSSPLR [PPEF2] | 3.56 ± 0.53 | 3.56 ± 0.21
GRPKELQPKKLHLCPLCGKNFSNN [ZNF263] | 2.88 ± 0.46 | 3.58 ± 0.52
ALQVPRGKEDSTLQLLREENRALQ [CBY2] | 4.13 ± 0.25 | 4.23 ± 0.084
LGLKDKEGYTSFWNDCISSGLRGG [GOLPH3L] | 2.65 ± 0.59 | 2.83 ± 0.31
RFNLILADTNSDRLFTVNDVKVGG [DCAF4] | 2.44 ± 0.15 | 2.31 ± 0.4
DLRGVCVSGKCEPIGCDGVLFSTH [ADAMTSL2] | 2.4 ± 0.091 | 2.75 ± 0.59
LKERFAFLFNSELLSDVRFVLGKG [BTBD1] | 2.53 ± 0.23 | 2.64 ± 0.41
TFILKNPPENSDSGTGKKEKEKKN [EIF5] | 4.94 ± 0.3 | 5.137 ± 0.05
LPACEFEMGGSEGIVESIQIMKEG [NETO1] | 4.92 ± 0.26 | 4.74 ± 0.3
GRLLLTLPLLRQTAGKVLAHFYGV [ESRRA] | 2.78 ± 0.54 | 3.05 ± 0.88

Sequence | protein stability index (treatment: DMSO) | protein stability index (treatment: MLN4924 1 uM, 8 h)
MSPSLQEGAQLGENKPSTCSFSIE [HESX1] | 4.95 ± 0.3 | 5.07 ± 0.18
AVNNGDFEAYAKICDPGLTSFEPE [CAMK2B] | 4.35 ± 0.27 | 4.38 ± 0.14
TMEDTLMTVKQYEAARLEYDAYRT [ARFIP2] | 3.88 ± 0.27 | 3.74 ± 0.3
QAPPVPGPPPGAPHTPQTPGQGGP [NR2F2] | 5.22 ± 0.56 | 5.05 ± 0.38
DKWFRKIKDHFCPFENQFHTEIQI [C8orf76] | 2.2 ± 0.54 | 2.32 ± 0.42
IYTNRYETNEEDKTLQEIYRKYRK [FBXO39] | 2.96 ± 0.32 | 3.58 ± 0.61
RRLFGPVDSEQLRRDCDALMAGCI [CDKN1A] | 2.75 ± 0.26 | 2.74 ± 0.34
GQVLHFENVKDVPFGFQTVTSDVN [SERPINB5] | 3.85 ± 0.36 | 3.84 ± 0.42
LLLHRGAGKEAMTSDGYTALHLAA [RIPK4] | 2.33 ± 0.25 | 2.22 ± 0.48
GNQDYKYRVSDVTKAGHSLELIEP [VDR] | 4.24 ± 0.22 | 4.3 ± 0.26
VERSKMIDRNLREDGEKAAREVKL [GNAI1] | 4.93 ± 0.38 | 5.09 ± 0.062
PFDLEQQWQDLMSIMEMQAMEVNT [NFE2L1] | 3.87 ± 0.17 | 4.03 ± 0.28
GEKMVAAKVKGEKLDKKLKKMEQN [ATF4] | 5 ± 0.27 | 4.76 ± 0.18
TCFDQRKRANAAFLIGAYAVIYLK [CDC14A] | 2.05 ± 0.31 | 2.13 ± 0.41
MTRNDVLTGLQLKLGPALKIYEYH [SAMD13] | 2.24 ± 0.42 | 2.22 ± 0.3
EAERKIIEENITSAAPSNDQDGEY [SRPK2] | 5.66 ± 0.17 | 5.69 ± 0.26
ESKKHQVETAFERLQQELEQQRCL [TRIM15] | 4.61 ± 0.31 | 4.53 ± 0.12
AEGSNSESSDDDSEEAPSTSGMGF [SDE2] | 5.37 ± 0.15 | 5.26 ± 0.36
KDLTEYLKVRSHDPEEAIRHDVIV [PDS5B] | 3.26 ± 0.38 | 3.39 ± 0.14
LYLKQSDLASAAAKQIMEETYKME [INTS4] | 3.05 ± 0.17 | 3.3 ± 0.23
NGDGAFLHDNHEQMPTEIEFPESR [ZNF649] | 5.31 ± 0.36 | 5.19 ± 0.45
